The assay has as its target T1, CHRD_VWC2 (Mus musculus (Mouse), UniProt Q9Z0E2).
T1 chain: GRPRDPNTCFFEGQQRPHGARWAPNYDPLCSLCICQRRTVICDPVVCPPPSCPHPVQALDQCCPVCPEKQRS
The assay is described as follows: SPR, chordin VWC immobilised. For orientation: In SPR one partner is held on a chip, and binding of the other changes the refractive index at the surface.

B1: CV2 (protein)
chain: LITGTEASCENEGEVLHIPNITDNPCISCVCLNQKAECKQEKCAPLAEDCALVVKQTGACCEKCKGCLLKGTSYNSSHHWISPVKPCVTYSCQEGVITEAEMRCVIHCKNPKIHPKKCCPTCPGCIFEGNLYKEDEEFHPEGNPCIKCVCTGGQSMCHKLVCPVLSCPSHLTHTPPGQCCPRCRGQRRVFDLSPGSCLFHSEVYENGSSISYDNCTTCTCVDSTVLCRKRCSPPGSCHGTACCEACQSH
Broadly, the Kd is the free concentration of one partner at which half of the binding sites on the other are occupied at equilibrium, for simple one-to-one binding. B1 showed a Kd of 145 nM.
